Paper PMC8325345

Key:
[1] = molecular target: T1, ecHrpA1-783,E675A (Escherichia coli DH5-alpha, UniProt P43329 1-783, E675A); test: fluorescence anisotropy
T1 sequence: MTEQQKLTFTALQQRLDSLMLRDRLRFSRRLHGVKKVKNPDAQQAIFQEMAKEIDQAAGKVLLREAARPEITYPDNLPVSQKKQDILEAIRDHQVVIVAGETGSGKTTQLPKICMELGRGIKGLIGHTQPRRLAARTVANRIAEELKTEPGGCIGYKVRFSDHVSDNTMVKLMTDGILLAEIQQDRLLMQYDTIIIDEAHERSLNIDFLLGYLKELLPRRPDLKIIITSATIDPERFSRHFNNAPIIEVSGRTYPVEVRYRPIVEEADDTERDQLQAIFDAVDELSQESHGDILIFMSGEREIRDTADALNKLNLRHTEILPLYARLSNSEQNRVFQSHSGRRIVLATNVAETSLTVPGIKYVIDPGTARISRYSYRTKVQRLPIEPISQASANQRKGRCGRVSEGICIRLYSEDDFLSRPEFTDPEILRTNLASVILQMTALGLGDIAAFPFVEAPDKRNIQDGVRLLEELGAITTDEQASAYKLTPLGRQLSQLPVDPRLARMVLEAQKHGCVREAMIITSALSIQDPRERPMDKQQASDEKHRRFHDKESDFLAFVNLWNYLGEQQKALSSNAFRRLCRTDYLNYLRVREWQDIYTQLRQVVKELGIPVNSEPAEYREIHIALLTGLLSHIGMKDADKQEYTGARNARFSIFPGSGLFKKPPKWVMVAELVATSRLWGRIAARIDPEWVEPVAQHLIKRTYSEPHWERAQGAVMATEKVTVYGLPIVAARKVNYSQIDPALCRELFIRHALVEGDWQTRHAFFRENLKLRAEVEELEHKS

[2] = molecular target: T2, ecHrpA FL (Escherichia coli DH5-alpha, UniProt P43329 1-1300); test: fluorescence anisotropy
T2 sequence: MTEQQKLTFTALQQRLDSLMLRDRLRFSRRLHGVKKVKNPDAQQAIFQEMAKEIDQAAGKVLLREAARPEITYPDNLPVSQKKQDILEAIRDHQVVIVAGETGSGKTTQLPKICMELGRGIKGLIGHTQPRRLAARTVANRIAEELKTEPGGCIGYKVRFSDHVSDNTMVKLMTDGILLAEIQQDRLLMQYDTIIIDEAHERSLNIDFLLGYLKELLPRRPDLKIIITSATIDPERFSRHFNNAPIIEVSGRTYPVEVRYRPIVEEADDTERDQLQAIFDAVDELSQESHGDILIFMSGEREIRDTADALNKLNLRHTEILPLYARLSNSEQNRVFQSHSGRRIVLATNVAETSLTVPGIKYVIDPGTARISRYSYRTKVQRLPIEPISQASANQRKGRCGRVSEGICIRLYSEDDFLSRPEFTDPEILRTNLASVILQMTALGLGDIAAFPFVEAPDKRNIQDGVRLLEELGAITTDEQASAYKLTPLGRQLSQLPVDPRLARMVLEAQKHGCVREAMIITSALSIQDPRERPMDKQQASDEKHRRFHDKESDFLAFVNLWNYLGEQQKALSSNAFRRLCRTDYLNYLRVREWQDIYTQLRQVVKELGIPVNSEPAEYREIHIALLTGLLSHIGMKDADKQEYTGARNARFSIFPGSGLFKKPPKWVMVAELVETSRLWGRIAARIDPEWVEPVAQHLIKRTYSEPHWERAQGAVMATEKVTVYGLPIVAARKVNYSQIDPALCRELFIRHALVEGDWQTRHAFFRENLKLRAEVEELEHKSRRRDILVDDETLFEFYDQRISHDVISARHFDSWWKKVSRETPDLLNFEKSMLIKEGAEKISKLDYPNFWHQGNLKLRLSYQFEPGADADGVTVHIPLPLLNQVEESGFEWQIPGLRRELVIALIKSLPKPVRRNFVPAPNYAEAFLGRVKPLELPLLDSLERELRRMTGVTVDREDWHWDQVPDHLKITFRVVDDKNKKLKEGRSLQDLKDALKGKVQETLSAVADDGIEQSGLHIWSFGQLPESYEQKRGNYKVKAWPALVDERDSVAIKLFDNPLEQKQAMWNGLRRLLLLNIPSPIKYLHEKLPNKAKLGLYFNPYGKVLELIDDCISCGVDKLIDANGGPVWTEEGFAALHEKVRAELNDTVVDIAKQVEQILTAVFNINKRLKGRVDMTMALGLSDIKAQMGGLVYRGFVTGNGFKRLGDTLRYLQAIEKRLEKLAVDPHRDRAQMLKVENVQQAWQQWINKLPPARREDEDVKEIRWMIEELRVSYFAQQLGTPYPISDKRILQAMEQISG

GCUGCCAGACCAAAU (ssRNA) [FAM-RNASS15]
binding signal [1]: ~2.2 fold lower RNA binding than ecHrpA1-783

B1: FAM-RNABlunt (dsRNA)
RNA 1: GCUGCCAGACCAAAU
RNA 2: AUUUGGUCUGGCAGC
binding result [2]: no binding

TATAAACCAGACCGTC (ssDNA) [FAM-DNASS16]
binding result [2]: no binding
